Publication PMC6677171, “Subunit interactions and arrangements in the fission yeast Mis16–Mis18–Mis19 complex” (Life Science Alliance, 2019)

How the values were obtained:
Cnp1–H4 = assay: Pull-down competition with full-length histones Cnp1–H4 (histone octamers); type: binding, S. pombe; settings: incubation with Cnp1–H4–H2A–H2B octamers (molar excess); 25 mM Tris–HCl, pH 7.5, 500 mM NaCl, 5% glycerol, 1 mM TCEP, at least 1 h at 4°C; SDS–PAGE
Protocol: We were unable to purify these directly as recombinant proteins, probably because of the lack of a suitable chaperone. […] As free Mis19 is extremely unstable, we tested if preformed Mis16–Mis19 dimers (full-length and N-terminally truncated, see sections below) could also interact with H4–Cnp1 by incubating them in a large molar excess of histone octamer.
All proteins were expressed in insect cells using standard procedures. Genes were codon-optimised in all cases (GeneArt). Single protein constructs were cloned in pFastBac vectors (Invitrogen), whereas multi-protein complexes were cloned using the MultiBac system ([Fitzgerald et al, 2006]). The Mis16 protein carried a TEV protease-cleavable double-Strep-Tactin tag at the N terminus for purification purposes. All clones were sequence verified. Baculoviruses were generated and amplified using Sf21 cells, infected in Hi5 cells, and then further incubated at 27°C for 48 h. Harvested cells were lysed by sonication in buffer A containing 50 mM Tris–HCl, pH 7.5, 150 mM NaCl, 0.5 mM TCEP, benzonase nuclease (3 units/1 × 10^6 cells), 10% glycerol, and protease inhibitors cocktail set III (Calbiochem). […]
All in vitro pull-down assays were performed using purified proteins or protein complexes. […] Input and pull-down elution samples were analysed by SDS–PAGE.

Mis16 = target: T1, Mis16 (Schizosaccharomyces pombe, UniProt O94244); assay: Co-expression and affinity pull-down/size-exclusion co-purification of Mis19 deletions with Mis16; type: binding, S. pombe; settings: co-expressed in insect cells, Strep-Tactin tag on Mis16, gel filtration, SDS–PAGE band
T1 construct: double-Strep-Tactin tag (TEV protease-cleavable) (N, cleaved yes); made in house; host or cells: insect cells (baculovirus made in Sf21, expression in Hi5)
T1 sequence (O94244 whole entry): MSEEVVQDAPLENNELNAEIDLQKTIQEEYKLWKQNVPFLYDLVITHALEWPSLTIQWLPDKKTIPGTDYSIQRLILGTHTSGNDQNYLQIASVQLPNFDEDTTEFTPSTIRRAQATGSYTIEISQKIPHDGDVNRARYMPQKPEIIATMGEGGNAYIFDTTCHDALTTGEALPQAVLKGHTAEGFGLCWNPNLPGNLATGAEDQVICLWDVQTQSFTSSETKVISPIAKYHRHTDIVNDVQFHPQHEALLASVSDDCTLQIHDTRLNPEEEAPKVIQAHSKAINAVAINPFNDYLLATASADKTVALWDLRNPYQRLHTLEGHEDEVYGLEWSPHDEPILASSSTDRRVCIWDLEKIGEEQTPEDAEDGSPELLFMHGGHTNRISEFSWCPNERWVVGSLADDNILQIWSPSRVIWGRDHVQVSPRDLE
Excerpt: Figure 2. Mis16–Mis19 contact regions. (A) Crystal structure of Mis16–Mis19 highlighting the Mis19-binding sites. Three putative binding sites A, B, and C (lighter to darker orange from N terminus to C terminus) are indicated. (B) Schematic of the various deletion constructs of Mis19 are used for binding studies showing the positions of sites A, B, and C. (C) Constructs containing affinity-tagged Mis16 and the Mis19 deletions shown above were co-expressed and purified by affinity pull-down and size-exclusion chromatography. SDS–PAGE gel of peak fractions is shown. Asterisks indicate impurities. (D) Close-up of the A- and C-binding sites. The locations of the kis1-1 (R65) and eic1-1 (F102) t.s. mutant residues are shown.
The C-terminal interaction of Mis19 with Mis16 (site C in our nomenclature) has been previously described ([An et al, 2018]). […] To test the contribution of the individual sites to the Mis16–Mis19 interaction, various truncated Mis19 constructs were designed, for which site A, […], or both A and C are missing (Fig 2B). Full-length Mis16 and Mis19C (includes sites A, B, and C, residues 52–112), construct 1 (includes site B and C, residues 66–112), construct 2 (includes binding site B, residues 66–99), and construct 3 (includes site A and B, residues 52–99) were co-expressed in insect cells, as the isolated Mis19 truncations cannot be expressed and purified. […]

B1: Mis19C: Mis19 truncation including sites A, B, and C, residues 52–112 (protein)
chain: PRVYETELLVLRFREFGVKDNHNHPINLHSLRSKSLIRAQGKKLDLHNRVFLRRNVRAVKM
- interaction with Cnp1–H4 / histone transfer (Cnp1–H4): no histones can be transferred onto Strep-Mis16
- association with Mis16 (Mis16): Mis19 is associated with Mis16

B2: Mis19: S. pombe Mis18 partner protein (protein)
chain: MDLMPLEKARAIEIAFDNVFHNTKIPDNLQQFDAILKRLERRRFIPTENQKPRVYETELLVLRFREFGVKDNHNHPINLHSLRSKSLIRAQGKKLDLHNRVFLRRNVRAVKM
- interaction with Cnp1–H4 / histone transfer (Cnp1–H4): completely inhibits histone transfer to Mis16
